Measured values from paper PMC7383237, “Diversification of DNA-Binding Specificity by Permissive and Specificity-Switching Mutations in the ParB/Noc Protein Family”.
Where a chain is given by its changes, count along the chain named.

T1: ParB WT (RTAG) (Caulobacter crescentus, UniProt B8GW30 1-304)
T1 sequence: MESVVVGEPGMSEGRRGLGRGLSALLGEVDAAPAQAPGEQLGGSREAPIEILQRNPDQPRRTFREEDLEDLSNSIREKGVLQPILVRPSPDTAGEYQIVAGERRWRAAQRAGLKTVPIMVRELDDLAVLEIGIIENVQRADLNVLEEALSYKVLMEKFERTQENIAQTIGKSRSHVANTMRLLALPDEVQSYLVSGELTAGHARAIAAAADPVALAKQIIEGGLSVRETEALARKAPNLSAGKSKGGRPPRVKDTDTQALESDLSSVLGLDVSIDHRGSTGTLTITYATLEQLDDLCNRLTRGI

T2: ParB PtoN7 (QTAR) (Caulobacter crescentus, UniProt B8GW30 1-304, R173Q;G201R)
T2 sequence: T1 sequence with R173Q, G201R

T3: ParB PtoN1 (QTAG) (Caulobacter crescentus, UniProt B8GW30 1-304, R173Q)
T3 sequence: T1 sequence with R173Q

T4: ParB DBD (Caulobacter crescentus, UniProt B8GW30 126-243)
T4 sequence: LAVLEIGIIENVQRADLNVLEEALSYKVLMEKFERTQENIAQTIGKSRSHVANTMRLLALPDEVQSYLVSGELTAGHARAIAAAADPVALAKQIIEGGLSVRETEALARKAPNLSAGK

B1: parS BLI duplex (dsDNA)
DNA 1: GGGATGTTTCACGTGAAACA
DNA 2: TGTTTCACGTGAAACATCCC
B2: site3 (dsDNA)
DNA 1: GGGATGTTTCCCGGGAAACA
DNA 2: TGTTTCCCGGGAAACATCCC
B3: NBS BLI duplex (dsDNA)
DNA 1: GGGATATTTCCCGGGAAATA
DNA 2: TATTTCCCGGGAAATATCCC
B4: site9 (dsDNA)
DNA 1: GGGATTTTTCTCGAGAAAAA
DNA 2: TTTTTCTCGAGAAAAATCCC
B5: site1 (dsDNA)
DNA 1: GGGATGTTTCTCGAGAAACA
DNA 2: TGTTTCTCGAGAAACATCCC
B6: site5 (dsDNA)
DNA 1: GGGATCTTTCTCGAGAAAGA
DNA 2: TCTTTCTCGAGAAAGATCCC
B7: site6 (dsDNA)
DNA 1: GGGATCTTTCGCGCGAAAGA
DNA 2: TCTTTCGCGCGAAAGATCCC
B8: site13 (dsDNA)
DNA 1: GGGATATTTCTCGAGAAATA
DNA 2: TATTTCTCGAGAAATATCCC
B9: site2 (dsDNA)
DNA 1: GGGATGTTTCGCGCGAAACA
DNA 2: TGTTTCGCGCGAAACATCCC
B10: site8 (dsDNA)
DNA 1: GGGATTTTTCACGTGAAAAA
DNA 2: TTTTTCACGTGAAAAATCCC
B11: site14 (dsDNA)
DNA 1: GGGATATTTCGCGCGAAATA
DNA 2: TATTTCGCGCGAAATATCCC
B12: site7 (dsDNA)
DNA 1: GGGATCTTTCCCGGGAAAGA
DNA 2: TCTTTCCCGGGAAAGATCCC
B13: site11 (dsDNA)
DNA 1: GGGATTTTTCCCGGGAAAAA
DNA 2: TTTTTCCCGGGAAAAATCCC
B14: site10 (dsDNA)
DNA 1: GGGATTTTTCGCGCGAAAAA
DNA 2: TTTTTCGCGCGAAAAATCCC
B15: site12 (dsDNA)
DNA 1: GGGATATTTCACGTGAAATA
DNA 2: TATTTCACGTGAAATATCCC
B16: site4 (dsDNA)
DNA 1: GGGATCTTTCACGTGAAAGA
DNA 2: TCTTTCACGTGAAAGATCCC
B17: parS 20-bp crystal duplex (dsDNA)
DNA 1: GATGTTTCACGTGAAACATC
DNA 2: GATGTTTCACGTGAAACATC

The binders below were run against T1, ParB WT (RTAG) (assay: BLI; BLI: 100 mM Tris-HCl pH 7.4, 150 mM NaCl, 1 mM EDTA, 0.005% Tween 20; temperature not stated; biotinylated DNA on streptavidin sensor, protein typically 0-1000). Details: protein: recombinant; tags: C-terminal His6; chain copies: 2; label: 5' biotin on strand 1; blunt.
In the case of B1, the Kd is reported as 11 ± 7 nM.

What follows are binders tested against T2, ParB PtoN7 (QTAR) (assay: BLI; 1000 nM dimer; BLI: 100 mM Tris-HCl pH 7.4, 150 mM NaCl, 1 mM EDTA, 0.005% Tween 20; temperature not stated; biotinylated DNA on streptavidin sensor, protein typically 0-1000). Details: protein: recombinant; tags: C-terminal His6; chain copies: 2; label: 5' biotin on strand 1; blunt.
B2: no binding.
B3: no binding.
B4: no binding.
B5: no binding.
B6: no binding.
B7: no binding.
B8: no binding.
B9: no binding.
B10: no binding.
B11: no binding.
B12: no binding.
B13: no binding.
B14: no binding.
B15: no binding.
B1: no binding.
B16: no binding.

Each binder was assayed against T3, ParB PtoN1 (QTAG) in the same assay as above. Details: protein: recombinant; tags: C-terminal His6; chain copies: 2; label: 5' biotin on strand 1; blunt.
B2: no binding.
B3: no binding.
B4: no binding.
B5: no binding.
B6: no binding.
B7: no binding.
B8: no binding.
B9: no binding.
B10: no binding.
B11: no binding.
B12: no binding.
B13: no binding.
B14: no binding.
B15: no binding.
B1: no binding.
B16: no binding.

Each binder was assayed against T4, ParB DBD (assay: X-ray crystallography 2.4 A; BLI: 100 mM Tris-HCl pH 7.4, 150 mM NaCl, 1 mM EDTA, 0.005% Tween 20; temperature not stated; biotinylated DNA on streptavidin sensor, protein typically 0-1000). Details: protein: recombinant; tags: C-terminal His6; chain copies: 2; blunt; palindrome, 2 strand copies.
B17: binds.
